In patent US20220204996A1:

Experiments:
[1] = biological target: PSI purified from WT^H6 (Chlamydomonas reinhardtii) (UniProt P12154); experiment: cell-based or functional assay
[2] = biological target: PSI-HydA complex of the ΨH1 strain (hydA1-1 hydA2-1 [psaC-hydA2]) (Chlamydomonas reinhardtii) (UniProt P12154); experiment: cell-based or functional assay
[3] = biological target: PSI-HydA complex purified from ΨH1^H6 (Chlamydomonas reinhardtii) (UniProt P12154); experiment: cell-based or functional assay
[4] = biological target: PSI-HydA complex of the ΨH1 strain (hydA1-1 hydA2-1 [psaC-hydA2]) (Chlamydomonas reinhardtii) (UniProt P12154); experiment: cell-based or functional assay; remark: listed apart in the source
[5] = substrate: PSI purified from the hydA strain (hydA1-1 hydA2-1) (Chlamydomonas reinhardtii) (UniProt P12154); experiment: cell-based or functional assay
[6] = biological target: PSI-HydA complex purified from ΨH1^H6 (Chlamydomonas reinhardtii) (UniProt P12154); experiment: immunoblot of isolated PSI particles loaded on equal P700

ferredoxin (Fd) (from UniProt P07839 33-126)
NADP+ photoreduction rate (coupled assay with Fd and FNR) (NADPH s^-1 per PSI) [1]: 1.57
rate of H2 production in the dark (GC-TCD, ΨH1 culture) (nmol H2 h^-1 (mg Chl)^-1) [2]: 330
NADP+ photoreduction rate (coupled assay with Fd and FNR) (NADPH s^-1 per PSI) [3]: 0.77
ability of PSI-HydA to reduce algal Fd (in a coupled assay) [3]: 50%

B1: Recombinant Synechococcus sp. PCC7002 flavodoxin (protein, UniProt P31158 2-170, looked up)
chain: SKIGLFFGTQTGNTEELAQAIQAAFGGSDIVELFDVAEVDIEALRDFDQLIIGCPTWNVGELQSDWEALYDDLDDVDFSGKTIAYFGAGDQVGYADNFQDAMGVLEEKITSLGGKTVGQWPTAGYDHSESKAERDGKFVGLAIDEDNQPELTAERIQAWVAQLKPAFGL
Flavodoxin photoreduction turnover rate [4]: 0.088 s⁻¹
light-driven reduction of cyanobacterial flavodoxin, drop against PSI [4]: 9 fold
Flavodoxin photoreduction turnover rate [5]: 0.77 s⁻¹

B2: PsaD (protein, Chlamydomonas reinhardtii, UniProt Q39615 36-196, looked up)
chain: EAEAAPAAAKKAAEKPAWTVPTLNPDTPSPIFGGSTGGLLRKAQTEEFYVITWEAKKEQIFEMPTGGAAIMRQGPNLLKFGKKEQCLALTTQLRNKFKLTPCFYRVFPDGKVQYLHPADGVYPEKVNAGRVGANQNMRRIGQNVNPIKVKFSGRMMSPAEI
ratio of anti-PsaD cross-reactive bands (PSI : PSI-HydA) (ratio to WT PSI) [6]: 1.02
